# According to the supplement of paper PMC7877785:
# ± gives the uncertainty stated by the source.
# Assay: self-splicing fitness, log relative to wild type (ln ratio); higher = more splicing; Tetrahymena group I intron in knt gene, E. coli kanamycin selection, DiMSum; sequences stand for … in CUCUCU…GGAGGGAAAAGUUAUCAGGCAUGCACCUGGUAGCUAGUCUUUAAACCAAUAGAUUGCAUCGGUUUAAAAGGCAAGACCGUCAAAUUGCGGGAAAGGGGUCAACAGCCGUUCAGUACCAAGUCUCAGGGGAAACUUUGAGAUGGCCUUGCAAAGGGUAUGGUAAUAAGCUGACGGACAUGGUCCUAACCACGCAGCCAAGUCCUAAGUCAACAGAUCUUCUGUUGAUAUGGAUGCAGUUCACAGACUAAAUGUCGGUCGGGGAAGAUGUAUUCUUCUCAUAAGAUAUAGUCGGACCUCUCCUUAAUGGGAGCUAGCGGAUGAAGUGAUGCAACACUGGAGCCGCUGGGAACUAAUUUGUAUGCGAAAGUAUAUUGAUUAGUUUUGGAGUACUCGUGGUCG
# Procedure, shortened: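 Colonies from six replicate transformations of E. coli BL21(DE3) were pooled and amplicon-sequenced on an Illumina HiSeq 2500. The library placed an intron with all eight P1ex-region nucleotides randomised inside the knt kanamycin-resistance gene on pET-22b(+), and cells grew overnight at 37°C or 30°C on LB agar with or without 25 μg/mL kanamycin (plus 100 μg/mL carbenicillin, 50 μM IPTG, 0.2% rhamnose). Fitness is the DiMSum error-weighted combination of wild-type-normalised replicate fold changes, kanamycin versus none.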
sequence,measurement,setting,value
GCUCAGCAAUAUUACGCGGA,self-splicing fitness (ln),30 °C,-2.01 ± 0.26
same,self-splicing fitness (ln),37 °C,-2.63 ± 0.28
UAUCAGCAAUAUUACGAGCG,self-splicing fitness (ln),30 °C,-0.616 ± 0.059
same,self-splicing fitness (ln),37 °C,0.345 ± 0.088
GGGUAGCAAUAUUACGUUGC,self-splicing fitness (ln),30 °C,-3.63 ± 0.33
same,self-splicing fitness (ln),37 °C,-0.334 ± 0.22
GGCGAGCAAUAUUACGUACU,self-splicing fitness (ln),30 °C,-0.65 ± 0.13
same,self-splicing fitness (ln),37 °C,-0.094 ± 0.15
CUCUAGCAAUAUUACGUUUG,self-splicing fitness (ln),30 °C,-3.43 ± 0.13
same,self-splicing fitness (ln),37 °C,-2.27 ± 0.14
CCCGAGCAAUAUUACGCAAA,self-splicing fitness (ln),30 °C,-4.05 ± 0.35
same,self-splicing fitness (ln),37 °C,-0.386 ± 0.21
CUAAAGCAAUAUUACGAUCC,self-splicing fitness (ln),30 °C,-2.81 ± 0.27
same,self-splicing fitness (ln),37 °C,-1.13 ± 0.36
UUUGAGCAAUAUUACGUAGA,self-splicing fitness (ln),30 °C,-1.7 ± 0.22
same,self-splicing fitness (ln),37 °C,-0.802 ± 0.24
CGACAGCAAUAUUACGUGUC,self-splicing fitness (ln),30 °C,-3.39 ± 0.13
same,self-splicing fitness (ln),37 °C,-2.01 ± 0.12
AAAGAGCAAUAUUACGGUCG,self-splicing fitness (ln),30 °C,-2.47 ± 0.16
same,self-splicing fitness (ln),37 °C,-1.58 ± 0.15
GGUUAGCAAUAUUACGAAGU,self-splicing fitness (ln),30 °C,-0.268 ± 0.2
same,self-splicing fitness (ln),37 °C,-0.745 ± 0.18
CGGUAGCAAUAUUACGUCUU,self-splicing fitness (ln),30 °C,-0.667 ± 0.1
same,self-splicing fitness (ln),37 °C,0.17 ± 0.12
GAGUAGCAAUAUUACGACAA,self-splicing fitness (ln),30 °C,-0.891 ± 0.12
same,self-splicing fitness (ln),37 °C,-0.0944 ± 0.12
UCGCAGCAAUAUUACGAACA,self-splicing fitness (ln),30 °C,-1.65 ± 0.12
same,self-splicing fitness (ln),37 °C,0.339 ± 0.13
AUGAAGCAAUAUUACGCCGU,self-splicing fitness (ln),30 °C,-0.474 ± 0.12
same,self-splicing fitness (ln),37 °C,-0.0165 ± 0.14
GGACAGCAAUAUUACGCGUC,self-splicing fitness (ln),30 °C,-2.69 ± 0.22
same,self-splicing fitness (ln),37 °C,-2.78 ± 0.48
UCAAAGCAAUAUUACGACAA,self-splicing fitness (ln),30 °C,-1.96 ± 0.19
same,self-splicing fitness (ln),37 °C,-1.22 ± 0.14
AGACAGCAAUAUUACGCUUU,self-splicing fitness (ln),30 °C,-3.18 ± 0.18
same,self-splicing fitness (ln),37 °C,-1.23 ± 0.12
CGUGAGCAAUAUUACGAAGA,self-splicing fitness (ln),30 °C,-1.53 ± 0.37
CUUGAGCAAUAUUACGUACU,self-splicing fitness (ln),30 °C,-4.15 ± 0.42
same,self-splicing fitness (ln),37 °C,-3.49 ± 0.39
GGGCAGCAAUAUUACGGCAC,self-splicing fitness (ln),30 °C,-1.17 ± 0.16
same,self-splicing fitness (ln),37 °C,-0.328 ± 0.17
AAUGAGCAAUAUUACGAAGA,self-splicing fitness (ln),30 °C,-2.8 ± 0.19
same,self-splicing fitness (ln),37 °C,-2.91 ± 0.26
GGGAAGCAAUAUUACGUCGG,self-splicing fitness (ln),37 °C,-0.827 ± 0.18
AUACAGCAAUAUUACGACUU,self-splicing fitness (ln),30 °C,-0.367 ± 0.065
same,self-splicing fitness (ln),37 °C,0.271 ± 0.081
GAUGAGCAAUAUUACGCGUU,self-splicing fitness (ln),30 °C,-4.44 ± 0.28
same,self-splicing fitness (ln),37 °C,-3.27 ± 0.21
GAGAAGCAAUAUUACGCUGA,self-splicing fitness (ln),30 °C,-1.49 ± 0.17
same,self-splicing fitness (ln),37 °C,-1.29 ± 0.15
AGCGAGCAAUAUUACGGACC,self-splicing fitness (ln),30 °C,-0.957 ± 0.13
same,self-splicing fitness (ln),37 °C,-1.08 ± 0.18
AGCUAGCAAUAUUACGACGU,self-splicing fitness (ln),30 °C,0.0109 ± 0.068
same,self-splicing fitness (ln),37 °C,-0.112 ± 0.08
UAUCAGCAAUAUUACGGAGA,self-splicing fitness (ln),30 °C,-0.973 ± 0.085
same,self-splicing fitness (ln),37 °C,-0.0429 ± 0.1
CUGCAGCAAUAUUACGAAAG,self-splicing fitness (ln),30 °C,-1.42 ± 0.14
same,self-splicing fitness (ln),37 °C,-1.47 ± 0.15
UACGAGCAAUAUUACGUCUG,self-splicing fitness (ln),30 °C,-1.51 ± 0.1
same,self-splicing fitness (ln),37 °C,-1.34 ± 0.11
ACCAAGCAAUAUUACGAAUA,self-splicing fitness (ln),30 °C,-2.69 ± 0.2
same,self-splicing fitness (ln),37 °C,-2.1 ± 0.16
CCCAAGCAAUAUUACGGCUA,self-splicing fitness (ln),30 °C,-4.01 ± 0.42
same,self-splicing fitness (ln),37 °C,-3.19 ± 0.32
AGGCAGCAAUAUUACGGUAG,self-splicing fitness (ln),30 °C,-3.33 ± 0.25
same,self-splicing fitness (ln),37 °C,-2.66 ± 0.29
CUCUAGCAAUAUUACGUUGG,self-splicing fitness (ln),30 °C,-3.9 ± 0.22
same,self-splicing fitness (ln),37 °C,-2.92 ± 0.23
UCCCAGCAAUAUUACGGGUC,self-splicing fitness (ln),30 °C,-3.67 ± 0.16
same,self-splicing fitness (ln),37 °C,-3.35 ± 0.22
CGACAGCAAUAUUACGCCGU,self-splicing fitness (ln),30 °C,-2.62 ± 0.35
same,self-splicing fitness (ln),37 °C,-1.55 ± 0.33
CACAAGCAAUAUUACGGAAA,self-splicing fitness (ln),30 °C,-3.04 ± 0.19
same,self-splicing fitness (ln),37 °C,-2.99 ± 0.2
AGGCAGCAAUAUUACGCCGA,self-splicing fitness (ln),30 °C,-1.28 ± 0.35
same,self-splicing fitness (ln),37 °C,-1.97 ± 0.22
UUUCAGCAAUAUUACGGUUC,self-splicing fitness (ln),30 °C,-1.67 ± 0.17
same,self-splicing fitness (ln),37 °C,-1.82 ± 0.27
CCGGAGCAAUAUUACGAAGU,self-splicing fitness (ln),30 °C,-4.05 ± 0.26
same,self-splicing fitness (ln),37 °C,-1.53 ± 0.23
UUAUAGCAAUAUUACGUGGG,self-splicing fitness (ln),30 °C,-3.41 ± 0.26
same,self-splicing fitness (ln),37 °C,-2.15 ± 0.23
AUAAAGCAAUAUUACGGCGU,self-splicing fitness (ln),30 °C,0.632 ± 0.068
same,self-splicing fitness (ln),37 °C,0.894 ± 0.1
CGAAAGCAAUAUUACGUGGA,self-splicing fitness (ln),30 °C,-3.24 ± 0.13
same,self-splicing fitness (ln),37 °C,-1.66 ± 0.096
GAUAAGCAAUAUUACGGAUA,self-splicing fitness (ln),30 °C,-1.73 ± 0.12
same,self-splicing fitness (ln),37 °C,-1.31 ± 0.15
CCGGAGCAAUAUUACGUUAA,self-splicing fitness (ln),30 °C,-2.42 ± 0.26
same,self-splicing fitness (ln),37 °C,-1.93 ± 0.41
CUAGAGCAAUAUUACGCCCA,self-splicing fitness (ln),30 °C,-3.13 ± 0.33
UUUUAGCAAUAUUACGGGUU,self-splicing fitness (ln),37 °C,-2.26 ± 0.29
GAGUAGCAAUAUUACGCGCC,self-splicing fitness (ln),30 °C,-1.42 ± 0.3
same,self-splicing fitness (ln),37 °C,-0.361 ± 0.29
AAUCAGCAAUAUUACGUUCG,self-splicing fitness (ln),30 °C,-1.51 ± 0.07
same,self-splicing fitness (ln),37 °C,-0.466 ± 0.089
GAGCAGCAAUAUUACGACGA,self-splicing fitness (ln),30 °C,-0.16 ± 0.15
same,self-splicing fitness (ln),37 °C,0.077 ± 0.17
AGUAAGCAAUAUUACGCUGC,self-splicing fitness (ln),30 °C,-2.97 ± 0.29
UUGUAGCAAUAUUACGUUAA,self-splicing fitness (ln),30 °C,-1.71 ± 0.14
same,self-splicing fitness (ln),37 °C,-2.31 ± 0.21
UACGAGCAAUAUUACGUUCC,self-splicing fitness (ln),30 °C,-2.83 ± 0.36
UGACAGCAAUAUUACGAGGG,self-splicing fitness (ln),30 °C,-3.73 ± 0.44
same,self-splicing fitness (ln),37 °C,-2.11 ± 0.35
ACUAAGCAAUAUUACGCAGG,self-splicing fitness (ln),30 °C,-2.02 ± 0.088
same,self-splicing fitness (ln),37 °C,-0.927 ± 0.092
UUUCAGCAAUAUUACGAUGG,self-splicing fitness (ln),30 °C,-2.15 ± 0.14
same,self-splicing fitness (ln),37 °C,-0.745 ± 0.16
CGGGAGCAAUAUUACGUUAU,self-splicing fitness (ln),30 °C,-2.65 ± 0.26
same,self-splicing fitness (ln),37 °C,-3.21 ± 0.47
GGUUAGCAAUAUUACGAAAC,self-splicing fitness (ln),37 °C,-1.68 ± 0.41
ACCCAGCAAUAUUACGAUUG,self-splicing fitness (ln),30 °C,-4.36 ± 0.19
same,self-splicing fitness (ln),37 °C,-2.78 ± 0.16
CAUCAGCAAUAUUACGGUCA,self-splicing fitness (ln),30 °C,-1.11 ± 0.076
same,self-splicing fitness (ln),37 °C,-0.81 ± 0.098
AGAAAGCAAUAUUACGGGCU,self-splicing fitness (ln),30 °C,-1.04 ± 0.12
same,self-splicing fitness (ln),37 °C,-0.993 ± 0.13
AAGCAGCAAUAUUACGGCAG,self-splicing fitness (ln),30 °C,-1.31 ± 0.065
same,self-splicing fitness (ln),37 °C,-0.525 ± 0.087
CAUGAGCAAUAUUACGGAAC,self-splicing fitness (ln),30 °C,-3.01 ± 0.33
same,self-splicing fitness (ln),37 °C,-2.65 ± 0.35
UCUAAGCAAUAUUACGCGUC,self-splicing fitness (ln),30 °C,-3.36 ± 0.24
same,self-splicing fitness (ln),37 °C,-2.01 ± 0.18
AAGUAGCAAUAUUACGGCGU,self-splicing fitness (ln),30 °C,-0.422 ± 0.091
same,self-splicing fitness (ln),37 °C,0.27 ± 0.11
AAUUAGCAAUAUUACGGGUC,self-splicing fitness (ln),30 °C,-1.55 ± 0.24
same,self-splicing fitness (ln),37 °C,-0.486 ± 0.24
AAGCAGCAAUAUUACGCAGA,self-splicing fitness (ln),30 °C,-2.16 ± 0.11
same,self-splicing fitness (ln),37 °C,-0.306 ± 0.091
CUCCAGCAAUAUUACGACGG,self-splicing fitness (ln),30 °C,-3.56 ± 0.23
same,self-splicing fitness (ln),37 °C,-2.42 ± 0.24
UAGCAGCAAUAUUACGUGCA,self-splicing fitness (ln),30 °C,-0.411 ± 0.082
same,self-splicing fitness (ln),37 °C,-0.287 ± 0.086
AGUAAGCAAUAUUACGACCA,self-splicing fitness (ln),30 °C,-0.203 ± 0.12
same,self-splicing fitness (ln),37 °C,0.184 ± 0.21
GGAAAGCAAUAUUACGGUAG,self-splicing fitness (ln),30 °C,-3.02 ± 0.2
same,self-splicing fitness (ln),37 °C,-2.98 ± 0.18
CAUUAGCAAUAUUACGAACU,self-splicing fitness (ln),30 °C,-2.29 ± 0.31
same,self-splicing fitness (ln),37 °C,-2.63 ± 0.36
UUUCAGCAAUAUUACGGCCU,self-splicing fitness (ln),30 °C,-3.87 ± 0.47
same,self-splicing fitness (ln),37 °C,-1.33 ± 0.25
ACUAAGCAAUAUUACGGCAG,self-splicing fitness (ln),30 °C,-1.71 ± 0.1
same,self-splicing fitness (ln),37 °C,-0.238 ± 0.11
GCCCAGCAAUAUUACGUCAG,self-splicing fitness (ln),30 °C,-3.98 ± 0.2
same,self-splicing fitness (ln),37 °C,-2.82 ± 0.23
AAAUAGCAAUAUUACGGCUU,self-splicing fitness (ln),30 °C,0.203 ± 0.1
same,self-splicing fitness (ln),37 °C,0.139 ± 0.13
